Experiment: yeast display, Sf9 membrane polyspecificity reagent, FACS + sequencing; frameworks hold sequencing errors
Summary of the method: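 A synthetic nanobody library was expressed on Saccharomyces cerevisiae BJ5465 by galactose induction for 36–48 hours. The library was stained for 1 hour at 4 °C with 10% biotinylated, detergent-solubilized Sf9 membrane reagent and enriched with streptavidin microbeads before FACS. Low and high (top ~1%) gates were set on anti-HA fluorescence for expression and streptavidin fluorescence for reagent binding, and each polyreactivity label reflects the gate of origin.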

Row | Sequence | polyreactivity (PSR sort gate)
1 | QVQLVESGGGLVQAGGSLRLSCAASGLIFRPYAMGWYRQAPGQERELVAAITSGGSTDYADSVKGRFTISRDNAKNTVYLQMNSLKPEDTAVYYCNADIYPPDGYPWQGDYDYWGQGTQVTVSS | low polyreactivity
2 | QVQLVESGGGLVQAGGSLRLSCAASGRTIYGYAMGWYRQAPGKERELVAAISWTGGRTYYADSVKGRFTISRDNAKNTVYLQMNSLKPEDTAVYYCNARRRGDSGDGYIYGYWGQGTQVNVSS | high polyreactivity
3 | QVHLVESGGGLVQAGGSLRLSCAASGRIFDDYAMGWYRQAPGKERELVAAISWSGGSTYYADSVKVRFTISRDNAKNTVYLQRNSLKPEDTAVYYCAAPYHYYKRIGYDYWGQGTQVTVSS | low polyreactivity
4 | QVQLVDSGGGLVQAGGSLRLSCAASGRIFSRYAMGGYRQAPGKERQLVAAITIGGRTNYADSVKGRFTFSRDNAKNTVYLQMNSLKPEDSAVYYCAVVLYTRYPPRVRYYYWGQGTQVTVSW | high polyreactivity
5 | QVQLVQSGGGLVQAGGSLRLSCAASGRTFRIYAMGWYRQAPWKEREFVAGITRSDGSTYYADSVKGRFTISRDNAKNTVYLQMISLKPEDTAVYYCNVEPYSHYRSTEDYWGQGTQVTVSS | high polyreactivity
6 | QVQLLESGGGLVQAGGSLRLSCMASGSILGDRMSWYRQAPGKEHELVATIYDGGITYYADSMKGRFTISRDNAKNTLYLQMNSLRPEDTAVYYCGACFEGYRYHVYCGQGTQVTVSS | low polyreactivity
7 | QVQLVESGGGLVQAGGSLRLSCADSGIIFTRYAMGWYRQAPGKERELVAVITQSGGRTYYADSVKGRFTISRDNAKNTVYLQLNSLKPEDTAVYYCAAAYKPSYFTRAGDYWGQGTQVTVSS | high polyreactivity
8 | QVHLVESGAGLDQAGVRLRLSCAPSGTTFDYNTMGWYRQAPGKERELVASINNSGGSTYYADSVKGRFTISRDNAKNTVYLQMISLKPVDTAVYYCAAVSYRRHFGPYNYWGQGTQVTVSS | low polyreactivity
9 | QVQLVESRGALVQAGRSLRLRCAASGLIFYLYAMGWYRQAPGKARELVAAINYSGGRTYYADSVKGRFTISRDNAKNTVYLQMNSLKPEDTAVYYCAAKSAGFQYNYWGHGTQVTVSS | high polyreactivity
10 | QVQLVESAGGLVQAGGSLRLSCASSGSTFQKYAMGWYRQAPGKESELVARISSGGSTTNADYVKGRFTISRDNAKYTVYIQMTSLKPEDTAVYYCAARLVVAQPHQWVVYLNTYYYWGQGTQVTVSS | high polyreactivity
11 | QVHLVESGGGLVQAGGSLRLSCAATGSIFDQNAMGWYRQAHGKVRELVAAITRGGSTKYADSVKGRFTISRDNAKNTVYLQMNSLKPEDTAVYYCARTARRRYQPYEYWGQGTQVTVSS | low polyreactivity
12 | QVQLVESGGGLVQAGGSLRLSCAASGSTFWFNAMGWYRQAPGKERELVAAIDSGGGTYYADSVKGRFTISRDNAKNTAYLQMNSLKPEDTAVFYCNASHPPKAELDYWGQGTQVTVSS | low polyreactivity
13 | QVQLVESGGGLVQAGGSLRLSCAASGSTFPYYAMGWYRQAPGKERELVAAITSSTGRTYYADSVKGRFTISRDNAKNSVYLQMNSLKPEDSAVYYCNAEVYSDPYNDHDYWGQGTQVTVSS | low polyreactivity
14 | QVQLQESGGGLVQARGSLRLSCAASGTILYSLGMGWYRQAPGKRREFVASITWGTTTNYAESVKGRFTISRDNAKNTVYPQMNSLKPEDTAVYYCAAPPFGDSSYHYWRQGTQVTVSS | low polyreactivity
15 | QVQLVESGGGLVQAGGSLRLSCAAYGYIFDHYAMGWYRQAPGKERELVAAINWSGGRTYYADSVKGRFTISRDNAKNTVYLQMNSLKPEDTAVYYCAAGGVSENDYWGQGTQVTVSS | high polyreactivity
16 | QVQLVESGGGLVQAGGSLRLSCAASGYTFIHNAMGWYRQAPGKERELVAAINRSGAITNYADSVKGRFTISRDNAKNTVYLQMNSLKPEDTAVYYCNADVDPLPPRYLHREVLKEYNYWGQGTQVTVSS | low polyreactivity
17 | QVQLVESGGGLVQAGGSLRLSCAASGSIFAYNAMGRYRPAPGKERELVAAITSDDSTNYADSVKGSFTISRDNAQNTVYLQMNSLKPEDTAVYDCAAYYYYTYIIGYDYCGQGTQVTVSS | low polyreactivity
18 | QVQLVESGGGLVQAGGSLRLSCAASGSTFVRYAMGWYRQAPGKERELVATISSRGGRTYYADSVKGRFTISRDNAKNTVYLQMNSLKPEDTAVYYCAADRRAAVPFGYGYWGQGTQVTVSS | high polyreactivity
19 | QVQLVESGGGLVQAGGSLRLSCAASGYTLRPNGMGWYRQAPGKERELVAAISSGGSTYYADSVKGRFTISRDNAKNTVYLQMNSLKPEDTAVYYCAAEYWYDYWGQGTQVTVSS | low polyreactivity
20 | QVQLVESGGGLVQAGGTLRLSGAASGSTFVYNAMGWNIQAPGKERDLVAVITRRGGSPYYADSVNGRFTISRDNEKKTVYLQMNILNPEDTAVYYCAAGYRRTQTTDYHYWGHGTQVTVSS | high polyreactivity
21 | QVQLVESGGGLVQAGGSLRLSCAASGFIFASNTMGWYRQAPGKERELVAAISSRGGRTYYAASVKGRFTISRDNAKNTVYLQMNSLKPEDTAVYYCAAVQKGDSTLLRTKGGYWGQGTQVTVSS | high polyreactivity
22 | QVQLVESGGGLVHAGGSLSLSCAASGIIFPWYTMGWYRKAPGKERELVAAISSGGRTNYADSVKGRFTISRDNATNTVFLQMNSLKQEDTAVYYCGAKYYRDRDWGQGTQVTVSS | high polyreactivity

Row | Sequence | polyreactivity (PSR sort gate)
23 | QVQLVESGGGLVQAGGSLRLSCAASGFIFTQYAMGWYRQAPGKERELVAGITSSGNTYYADSVKGRFTISRDNAKNTVYLQMNSLKPEDTAVYYCAARSYVRRFDGGYWGQGTQVTVSS | high polyreactivity
24 | QVQLVESGGGLVQAGGSLRLSCAASGFIFFRYAMGWYRQAPGKERELVAAISSSGGSTYYADSVKGRFTISRDNAKNTVYLQMNSLKPEDTAVYYCAAPRYRIFVGLGMEYWGQGTQVTVSS | high polyreactivity
25 | QVQLVESGGGLVQAGGSLRLSCAASGYTFLYYAMGWYRQAPGKERELVAAISSDGTTNYADSVKGRFTISRDNAKNTVYLQMNSLKPQVTAVYYCAADVFNWGYYYWGQGTQVTVSS | low polyreactivity
26 | QVQLVESGGGLVQAGGSLRLSCAASGRTFHDNAMGWYRQAPGKETELVAAISWRGGSTNYADSVKGRFTISRDNAKNTVYLQMNSLKPEDTAVYYCNRDPRKYGKLDYWGQVTQVTVSS | low polyreactivity
27 | QVQLVESGGGLVQAGGSLRLSCAASGSTLRWYAMGWYRQAPGKERELVARISWTTGSTYYADSVKGRFTISRDNAKNTVYLQMNSLKPEDTAVYYCAKGKKSSRSGIYNYWGQGTQVTVSS | high polyreactivity
28 | QVQLVESVGGLVQAGGSLRLSCAASGSTFYNNAMGWYRQAPGKERELVAAISSGGGTYYADSVKGRFTISRDNAMNTVYLQMNSLKPEDTAVYYCAADFANTTHWGRIKRNDYWGQGTQVTVSS | low polyreactivity
29 | QVQLVESGGGLVQAGGSLRLSCAASGGTFGTYAMGWYRQAPGKERELVAAITRSGGSTYADSVKGRFTISRDNAKNTVYLQMNSMKPEDTAVYYCNTRTTWRRYVVNGYDYWGQGTQVTVSS | low polyreactivity
30 | QVQLVESGGGLVQAGGSLRLSCAASGSTFYFYAKGWYRQAPGRELEWVAAISYSGGSTYYADSVKGRFTISRDNAKNTVYLQMNSLTPEDTAVYSCAADAAFYYDADDEYDYWGQGTQVTVSS | low polyreactivity
31 | QVQLVESGGGLVQARGSLRLSCAASGSISVYNAMGWYRQAPGKERELVAAISWSGGRTSYADSVKGRFTISRDNAKNTVYLQMNSLKPEDTAVYYCAADELTVLWDEDYWGQGTQVTVSS | low polyreactivity
32 | QVQLVESGGRLVQAGGSLRLSCAASGRILRYYALGWYRQAPGKERELVASISRGGSTYYADSVKGRFTISRDNAKNTVYLQMNSLKPEDTAVYDCATEVRRSTREFGYWGQGTQVTVSS | high polyreactivity
33 | QVQLVESGGGLVQAGGSLRLSCAASGFTFYRNAMGWYRQAPGKERELVARISRRGGITSYADSVKGRFTISRDNAKNTVYLQMNSLKTEDTAVYYCKAEKRGQSYRFDYWGQGTQVTVSS | high polyreactivity
34 | QVQLVESGGGLVQAGGSLRLSCAASGFIFIGYAMGWYRHAPGKERELVAAISWSGGSTYYADSVKGRFTISRDNAKNTVYLQMNSLKPEDTAVYYCNAVLYRFAYNYWGQGTQVTVSS | low polyreactivity
35 | QVQLVESGGGLVQAGGSLRLSCAASGRTFYTYAMGWYRQAPGKERELVAAITVTGDSTYYADSVKGRFTISRDNAKNTVYLQMNSLKPEDTAVYYCAADDYDPWYDWTMYYWGQGTQVTVSS | high polyreactivity
36 | QVQLVESGGGLVQAGGSLRLSCAASGFILPTYAMGWYRQAPGKEREFVAAIRTSTGATYYADSVKGRFTISRDIAKNTVYLQMTSLKPEDNAVYYFPADAPWSEWLWADIVGYEYWGQGTQVTVSS | low polyreactivity
37 | QVQLVESGGGLVQAGGSLRLSCAASGRTFYYYAMGWYRQAPGKERELVAAISRGGGSTYYADSVKGRFTISRDNAKNTVYLQMNSLKPEDTAVYSWNKVYSTSSYDYWGQGTQVTVSS | high polyreactivity
38 | QVQLVESCGGLVQAGGILRLSCAAYGRTFYKNAIGWYTQAPGKERELVAAMSSRGGRTTYADSVKGRFTISRDNAKYTVYLQMTSLKPEDTAVYYCAADWAQVYHGTPKYYYWGQGTQVTVSS | high polyreactivity
39 | QGQLVESGGGLVQAGGSLRLRCAASGRTFYTYAMGWYRQAPGKERELVATITSGGSTYADSVKGRFTISRDNAKNTVYLQMNSLKPEDTAVYYCARGYYKPSVGKSKRVGGNYWGQGTQVTVSS | high polyreactivity
40 | QVQLVESGGGLVQAGGSLRLSCAASGFTFWRYAMGWYRQAPGKERELVAAITWSGGRTYYADSVKGRFTISRDNAKNTVYLQMNSLKPEDTAVYYCNVDAYGYRPYRYYYWGQGTQVTVSS | high polyreactivity
41 | QVQLVESGGGLVQAGGSLRLSCAASGSIFSGNAMGWYRQAPGKERELVAAISRSGGSTYYADSVMGRFTISRDNAKNTVYLQMNSLKPEDTAVYYCNAGRYRAGGWGVGEGYWGQGTQVTVSS | high polyreactivity
42 | QVQLVESGGGLVQAGGSLRLSCAASGRTFYFYAMGWYRQAPGKERELVAAITFSGGSTYYADSVKGRFTISRDNAKNTVYLQMNSLKPEDTAVYYCIAVSTYKREYWGQGTQVTVSS | low polyreactivity
43 | QVQLVESGGGLVQAGGSLRLRCAASGRIFDYYAMGWYRPAPGNERELVAALSSSVGNTYYADSVKGRFTISRDNAKNTVYLQMNSLKPEDTAVYYCADNYYVRSSYEVEYDYWGQGTQVTVSS | low polyreactivity
